The source of these data is patent US20230365662A1.

“And” between values parts separate entries of the source, which are not always exact repeats. Identical values can stand only once.

Experiment [1] concerns the target HRgpA-6H (Porphyromonas gingivalis) (UniProt P28784). In words: ELISA on coated HRgpA-6H (coating concentration not stated); secondary Goat Anti-Human IgG (H+L). For orientation: ELISA stands for enzyme-linked immunosorbent assay.
For experiment [2] the target is unchanged. Briefly: ELISA on coated HRgpA-6H (coating concentration not stated); secondary Goat Anti-Human IgG, F(ab')2.
The target is the same in experiment [3]. In words: ELISA on coated HRgpA-6H (coating concentration not stated); secondary Anti-BSA (HRP).
The target is the same in experiment [4]. Briefly: ELISA on coated HRgpA-6H (coating concentration not stated); secondary Mouse Anti-Human IgG, F(ab')2.
In experiment [5] the target is Porphyromonas gingivalis strain W83 whole cells (surface gingipain/adhesin/hemagglutinin complex).
For experiment [6] the target is unchanged. Briefly: scanning electron microscopy, gold-labelled KB001.
The target of experiment [7] is P. gingivalis laboratory strains, serotypes and human clinical isolates (whole cells). Briefly: immunogold SEM.
In experiment [8] the target is HRgpA-6H (Porphyromonas gingivalis) (UniProt P28784). In words: ELISA, Fab FASEBA supernatant on coated HRgpA-6H (0.0625 ug/ml).
Experiment [9] has the same target. In words: ELISA, HRgpA-6H coated 2 ug/ml; mouse Fab FASEBA supernatant; Goat Anti-MOUSE IgG (Fab specific) [HRP].
Experiment [10] has the same target. Briefly: ELISA, HRgpA-6H coated 0.0625 ug/ml; mouse Fab FASEBA supernatant; Goat Anti-MOUSE IgG (Fab specific) [HRP].
For experiment [11] the target is unchanged. Briefly: ELISA, HRgpA-6H coated 0.125 ug/ml; mouse Fab FASEBA supernatant; Goat Anti-MOUSE IgG (Fab specific) [HRP].
The target is the same in experiment [12]. In words: ELISA, HRgpA-6H coated 0.25 ug/ml; mouse Fab FASEBA supernatant; Goat Anti-MOUSE IgG (Fab specific) [HRP].
Experiment [13] shares this target. Briefly: ELISA, HRgpA-6H coated 1 ug/ml; mouse Fab FASEBA supernatant; Goat Anti-MOUSE IgG (Fab specific) [HRP].
Experiment [14] shares this target. Briefly: ELISA, HRgpA-6H coated 0.5 ug/ml; mouse Fab FASEBA supernatant; Goat Anti-MOUSE IgG (Fab specific) [HRP].

Chain of UniProt P28784 (P28784 228-991 limits assumed): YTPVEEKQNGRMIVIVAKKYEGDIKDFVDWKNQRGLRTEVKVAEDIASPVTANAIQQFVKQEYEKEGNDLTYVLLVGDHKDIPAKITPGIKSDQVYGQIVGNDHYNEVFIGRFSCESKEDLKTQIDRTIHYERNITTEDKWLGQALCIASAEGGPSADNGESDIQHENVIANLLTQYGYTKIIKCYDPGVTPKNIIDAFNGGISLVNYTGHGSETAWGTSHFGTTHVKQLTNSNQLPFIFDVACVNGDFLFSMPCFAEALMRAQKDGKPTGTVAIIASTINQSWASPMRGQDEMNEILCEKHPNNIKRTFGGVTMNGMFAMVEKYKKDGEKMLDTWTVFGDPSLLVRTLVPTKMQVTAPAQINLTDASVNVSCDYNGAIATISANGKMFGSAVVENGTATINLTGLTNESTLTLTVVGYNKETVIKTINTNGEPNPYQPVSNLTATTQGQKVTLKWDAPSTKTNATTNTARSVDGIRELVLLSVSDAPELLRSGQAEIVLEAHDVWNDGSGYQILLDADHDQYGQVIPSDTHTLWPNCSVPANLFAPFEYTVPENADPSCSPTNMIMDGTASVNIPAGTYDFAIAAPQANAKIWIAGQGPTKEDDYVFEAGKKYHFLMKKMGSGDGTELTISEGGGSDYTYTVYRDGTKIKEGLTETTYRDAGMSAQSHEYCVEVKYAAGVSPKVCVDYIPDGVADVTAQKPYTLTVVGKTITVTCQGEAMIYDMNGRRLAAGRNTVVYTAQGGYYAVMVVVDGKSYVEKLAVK

Consider “non-related FASEBA supernatant (NC) (Fab)”, for which the OD450 is 1.15 and 0.736 in experiment [1]; 0.672 in [2]; 1.09 in experiment [3]; 0.552 and 0.288 in experiment [4].

B1: KB001 (antibody, V domains shown)
VH: EVQLKQSGPGLVAPSQSLSITCTVSGFSLSIYSVHWVRQPPGKGLEWLGMIWGGGSSDYNSALKSRLSISKDNSKSQVFLKMNSLQTDDTAMYYCARNGNFYAMDYWGQGTSVTVSS
VL: QIVLTQSPAIMSASLGERVTMTCTASSSVSSSFLHWYQQKPGSSPQLWIYSTSNLASGVPARFSGSGSGTSYSLTISSMEAEDAATYYCHQYHHSPYIYTFGGGTKLEIKR
A word on the Kd: it is the concentration at which binding is half-saturated. Low readings indicate tighter binding, high ones weaker binding. One may read the koff as the first-order rate constant of dissociation. A higher koff goes with a short-lived complex. For orientation: kon means the rate constant with which the complex forms. Consider B1, for which, in [5], the Kd worked out at 11.4 nM; the Response was 0.216 and 0.186 and 0.297; the koff is 0.000219 s⁻¹; the kon is 19200 M⁻¹ s⁻¹. The IgG molecules bound per bacteria (molecules per bacterium) in experiment [6] is 60 and 80. Also, the average labeled density in [7] came to 50 µm^-2.

B2: KB001 parental mouse Fab VH variant Y106K (Fab, V domains shown)
VH: EVQLKQSGPGLVAPSQSLSITCTVSGFSLSIYSVHWVRQPPGKGLEWLGMIWGGGSSDYNSALKSRLSISKDNSKSQVFLKMNSLQTDDTAMYYCARNGNFYAMDKWGQGTSVTVSS
VL: QIVLTQSPAIMSASLGERVTMTCTASSSVSSSFLHWYQQKPGSSPQLWIYSTSNLASGVPARFSGSGSGTSYSLTISSMEAEDAATYYCHQYHHSPYIYTFGGGTKLEIK
As to B2, in [8], the OD450nm is 0.767 and the Ratio OD(Variant)/OD(WT) was 0.997.

B3: KB001 parental mouse Fab VH variant Y106D (Fab, V domains shown)
VH: EVQLKQSGPGLVAPSQSLSITCTVSGFSLSIYSVHWVRQPPGKGLEWLGMIWGGGSSDYNSALKSRLSISKDNSKSQVFLKMNSLQTDDTAMYYCARNGNFYAMDDWGQGTSVTVSS
VL: QIVLTQSPAIMSASLGERVTMTCTASSSVSSSFLHWYQQKPGSSPQLWIYSTSNLASGVPARFSGSGSGTSYSLTISSMEAEDAATYYCHQYHHSPYIYTFGGGTKLEIK
Regarding B3, in [8], the OD450nm was 0.675 and the Ratio OD(Variant)/OD(WT) stood at 0.878.

B4: KB001 parental mouse Fab VH variant Y106W (Fab, V domains shown)
VH: EVQLKQSGPGLVAPSQSLSITCTVSGFSLSIYSVHWVRQPPGKGLEWLGMIWGGGSSDYNSALKSRLSISKDNSKSQVFLKMNSLQTDDTAMYYCARNGNFYAMDWWGQGTSVTVSS
VL: QIVLTQSPAIMSASLGERVTMTCTASSSVSSSFLHWYQQKPGSSPQLWIYSTSNLASGVPARFSGSGSGTSYSLTISSMEAEDAATYYCHQYHHSPYIYTFGGGTKLEIK
In the case of B4, in experiment [8], the OD450nm was 0.733 and 0.748; the Ratio OD(Variant)/OD(WT) was 0.953 and 0.973.

B5: KB001 parental mouse Fab VH variant M104V (Fab, V domains shown)
VH: EVQLKQSGPGLVAPSQSLSITCTVSGFSLSIYSVHWVRQPPGKGLEWLGMIWGGGSSDYNSALKSRLSISKDNSKSQVFLKMNSLQTDDTAMYYCARNGNFYAVDYWGQGTSVTVSS
VL: QIVLTQSPAIMSASLGERVTMTCTASSSVSSSFLHWYQQKPGSSPQLWIYSTSNLASGVPARFSGSGSGTSYSLTISSMEAEDAATYYCHQYHHSPYIYTFGGGTKLEIK
In the case of B5, in [8], the OD450nm was found to be 0.654 and the Ratio OD(Variant)/OD(WT) was 0.85.

B6: KB001 parental mouse Fab VH variant Y106H (Fab, V domains shown)
VH: EVQLKQSGPGLVAPSQSLSITCTVSGFSLSIYSVHWVRQPPGKGLEWLGMIWGGGSSDYNSALKSRLSISKDNSKSQVFLKMNSLQTDDTAMYYCARNGNFYAMDHWGQGTSVTVSS
VL: QIVLTQSPAIMSASLGERVTMTCTASSSVSSSFLHWYQQKPGSSPQLWIYSTSNLASGVPARFSGSGSGTSYSLTISSMEAEDAATYYCHQYHHSPYIYTFGGGTKLEIK
In the case of B6, in experiment [8], the OD450nm is 0.722 and the Ratio OD(Variant)/OD(WT) is 0.939.

B7: parental mouse Fab FASEBA sample (Fab, V domains shown)
VH: EVQLKQSGPGLVAPSQSLSITCTVSGFSLSIYSVHWVRQPPGKGLEWLGMIWGGGSSDYNSALKSRLSISKDNSKSQVFLKMNSLQTDDTAMYYCARNGNFYAMDYWGQGTSVTVSS
VL: QIVLTQSPAIMSASLGERVTMTCTASSSVSSSFLHWYQQKPGSSPQLWIYSTSNLASGVPARFSGSGSGTSYSLTISSMEAEDAATYYCHQYHHSPYIYTFGGGTKLEIKR
With B7, the OD450 in [9] is 2.04 and 1.98; in experiment [10] it was 0.755 and 0.687; in [11], 1.17 and 1.13; in [12] it was 1.58 and 1.51; in experiment [13], 1.94 and 2.02; in experiment [14] it was 1.76 and 1.82.
